B1: REGN7257: fully human IL-2Rγ antibody comprising the HCVR of SEQ ID NO: 1 and the LCVR of SEQ ID NO:5 (antibody, V domains shown)
VH: EVQLVESGGGLVQPGGSLRLSCAASGFIFSSYEMHWVRQAPGKGLEWISYISSSGTTIYYADSVKGRFTISRDNAKNSLYLHMNSLRAEDTAVYYCTRARITGTFDVFDIWGQGTMVTVSS
VL: DIQMTQSPSSLSASVGDRVTITCRASQSISSYLNWYQQKPGKAPKLLIFAASNLQSGVPSRFSGSRSGTDFTLTISSLQPEDFATYYCQQNYNIPYTFGQGTKLEIK

How the values were obtained:
[1] = system: BALB/cJ tail skin graft on VG mice humanized for IL2RG; experiment: In vivo skin graft rejection model, REGN7257 with MMF (Example 4); design: species or system mouse; conditions: REGN7257 25 mg/kg s.c. 2 times per week from 2 days prior to transplant; MMF 100 mg/kg i.p. daily from day of transplant; until rejection; FIG. 9
Description: (§1) BALB/cJ mice obtained from The Jackson Laboratory (Bar Harbor, ME) were used as skin graft donors, and MHC mismatched Velocigene® (VG) background mice (C57BL/6NTac (75%)/129S6SvEvTac (25%)) from the Regeneron Velocigene® breeding colony that were genetically modified to replace the endogenous IL2RG ectodomain with the corresponding human sequences were used as recipients. The skin graft was obtained from the tail of the donor mice. The skin was the peeled off using forceps and punched with a 10 mm diameter biopsy punch.
REGN7257 was administered subcutaneously at doses of 25 mg/kg at a frequency of 2 times per week starting 2 days prior to transplant, and continuing until rejection. MMF was administered intraperitoneally daily at a dose 100 mg/kg starting on the day of transplant, and continuing until rejection. Recipients with the surgical site shaved were anesthetized by isoflurane via a nose cone and administered an analgesic (buprenorphine-sustained release) (ZooPharm). The shaved dorsal area was swabbed with applications of povidone-iodine and alcohol. The graft bed was created midway laterally between the dorsal and ventral sides of the mouse by pinching skin with forceps followed by skin excision utilizing a sterile 10 mm diameter biopsy skin punch. […]

[2] = system: donor-specific antibodies (total IgG binding to CT26.WT cells); experiment: Detection of donor specific antibodies by flow cytometry (Example 1); format: in vivo, mouse; conditions: blood sampled day 56 post-transplant; MFI at 1/512 serum dilution; FIG. 3
Protocol: Detection of donor specific antibodies by flow cytometry: Blood was sampled at the day 56 post-transplant timepoint to assess formation of donor-specific antibodies. CT26.WT (ATCC® CRL-2638™) cells were cultured in tissue culture flasks to 80% confluent. Cells were washed with 1×DPBS and dissociated with TrypLE Express reagent (Gibco) by incubating at room temperature for 5 minutes and washing flask with complete RPMI 1640 media. Cells were then centrifuged (500 g, 10 minutes), and resuspended at 5 million cells/ml with 1×DPBS with 1:50 dilution of 4 μg/mL of Fc block (Tonbo) for 15 minutes at room temperature. The suspension was plated at 250,000 cells/well (50 μL) in a 384 well V-bottom plate.
50 μL of serially diluted sample serum from transplanted mice and from non-engrafted wild type VG mouse (C57BL/6NTac (75%)/129S6SvEvTac (25%)) and wild type BALB/cJ mouse obtained from The Jackson Laboratory was added to its respective well and incubated at 37° C. for 45 minutes. Following 2 washes with MACS buffer (500 g, 4 minutes), the cells were resuspended in 50 μL of LIVE/DEAD™ Fixable Blue Dead Cell Stain Kit (Invitrogen) diluted 1:500 in 1×DPBS at 50 μL total volume per well and incubated at room temperature for 15 minutes. […] Acquired events were analyzed with FlowJo (BD). […]

[3] = system: BALB/cJ tail skin graft on VG mice humanized for IL2RG; experiment: In vivo skin graft rejection model, REGN7257 monotherapy (Example 1); design: species or system mouse; conditions: 25 mg/kg s.c. 2 times per week starting 3 weeks prior to transplant until rejection
Description: as §1
As detailed in Table 2 below, VG mice (humanized for IL2RG), used as graft recipients, were administered no treatment (negative control), an isotype control (REGN1945), or REGN7257 subcutaneously at doses 25 mg/kg at a frequency of 2 times per week starting 3 weeks prior to transplant, and continuing until rejection (FIG. 1). […]
These grafts will display scabbing and contraction several […] from bandage removal. […] The complete rejection timepoint is recorded as the first day where 100% of the graft tissue was necrotic. Rejection onset was recorded as the first day where there were signs of rejection (i.e., redness). Significance was determined by Log-rank (Mantel-Cox) test with Bonferroni correction (adjusted p value 0.00555, K=9).

[4] = system: BALB/cJ tail skin graft on VG mice humanized for IL2RG; experiment: In vivo skin graft rejection model, REGN7257 induction with abatacept maintenance (Example 2); design: species or system mouse; conditions: induction: 2 doses 25 mg/kg s.c. (2 days prior and day of transplant); maintenance: 25 mg/kg s.c. 2 times per week from day of transplant until rejection; FIG. 5
Protocol: (2) “Scabbing” and contraction of the graft at later times was used as indicators of graft rejection. The complete rejection timepoint is recorded as the first day where 100% of the graft tissue was necrotic. Significance was determined by Log-rank (Mantel-Cox) test with Bonferroni correction (α=0.005, k=10).

Molecule	Median Survival Time [MST] of skin graft [1]	generation of donor-specific antibodies [2]	overall skin graft survival (time to complete rejection) ([3]; FIG. 2B)	onset of skin graft rejection ([3]; vs no mAb and isotype control, FIG. 2A)	skin graft median survival time [MST] (time to complete skin graft rejection) [4]
COc1c(C)c2c(c(O)c1C/C=C(\C)CCC(=O)OCCN1CCOCC1)C(=O)OC2 [MMF, mycophenolate mofetil, reference compound]	10	–	–	–	–
B1	12	prevented	improved	delayed	11 days
